T1: human neuromedin U receptor 1 (human, UniProt Q9HB89 24-426)
T1 sequence (looked up): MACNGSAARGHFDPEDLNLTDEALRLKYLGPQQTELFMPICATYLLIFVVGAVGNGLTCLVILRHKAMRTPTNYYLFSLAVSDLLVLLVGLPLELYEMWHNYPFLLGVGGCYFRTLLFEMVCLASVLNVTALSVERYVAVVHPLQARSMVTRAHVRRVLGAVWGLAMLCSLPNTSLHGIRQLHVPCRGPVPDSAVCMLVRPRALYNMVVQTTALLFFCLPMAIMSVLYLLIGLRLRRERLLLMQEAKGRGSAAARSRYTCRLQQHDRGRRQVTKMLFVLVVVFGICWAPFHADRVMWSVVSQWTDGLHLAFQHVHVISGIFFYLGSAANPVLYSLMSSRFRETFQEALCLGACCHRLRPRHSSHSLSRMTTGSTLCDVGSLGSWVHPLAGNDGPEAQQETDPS


Each binder was assayed against T1, human neuromedin U receptor 1 (assay: cell-based or functional assay).

| EC50 (hNMUR1) buffer | Binder |
| --- | --- |
| 1300 nM | EEEXXXXXXXXXXXXXYFLXRARG (HELM PEPTIDE1{[O=C(O)CCCCCCCCCCCCCCCCC(=O)[*:2]].[gGlu].[gGlu].[gGlu].[Sar].[Sar].[Sar].[Sar].[Sar].[Sar].[Sar].[Sar].[Sar].[Sar].[Sar].[Sar].[O=C(CN1CCN(CCN[*:1])CC1)[*:2]].Y.F.[meL].[Nle].[meR].[meA].R.G.[am]}$$$$V2.0; SMILES CCCC[C@H](NC(=O)[C@H](CC(C)C)N(C)C(=O)[C@H](Cc1ccccc1)NC(=O)[C@H](Cc1ccc(O)cc1)NC(=O)CN1CCN(CCNC(=O)CN(C)C(=O)CN(C)C(=O)CN(C)C(=O)CN(C)C(=O)CN(C)C(=O)CN(C)C(=O)CN(C)C(=O)CN(C)C(=O)CN(C)C(=O)CN(C)C(=O)CN(C)C(=O)CN(C)C(=O)CC[C@H](NC(=O)CC[C@H](NC(=O)CC[C@H](NC(=O)CCCCCCCCCCCCCCCCC(=O)O)C(=O)O)C(=O)O)C(=O)O)CC1)C(=O)N(C)[C@@H](CCCNC(=N)N)C(=O)N(C)[C@@H](C)C(=O)N[C@@H](CCCNC(=N)N)C(=O)NCC(N)=O) [C18DA-gGlu3-Sar12-AEPipAc-Tyr-Phe-NMeLeu-Nle-NMeArg-NMeAla-Arg-Gly-NH2] |
| 950 nM | EEEEXXXXXXXXXXXXXYFLXXPRG (HELM PEPTIDE1{[O=C(O)CCCCCCCCCCCCCCCCCCC(=O)[*:2]].[gGlu].[gGlu].[gGlu].[gGlu].[Sar].[Sar].[Sar].[Sar].[Sar].[Sar].[Sar].[Sar].[Sar].[Sar].[Sar].[Sar].[O=C(CN1CCN(CCN[*:1])CC1)[*:2]].Y.F.[meL].[Nle].[Orn].P.R.G.[am]}$$$$V2.0; SMILES CCCC[C@H](NC(=O)[C@H](CC(C)C)N(C)C(=O)[C@H](Cc1ccccc1)NC(=O)[C@H](Cc1ccc(O)cc1)NC(=O)CN1CCN(CCNC(=O)CN(C)C(=O)CN(C)C(=O)CN(C)C(=O)CN(C)C(=O)CN(C)C(=O)CN(C)C(=O)CN(C)C(=O)CN(C)C(=O)CN(C)C(=O)CN(C)C(=O)CN(C)C(=O)CN(C)C(=O)CC[C@H](NC(=O)CC[C@H](NC(=O)CC[C@H](NC(=O)CC[C@H](NC(=O)CCCCCCCCCCCCCCCCCCC(=O)O)C(=O)O)C(=O)O)C(=O)O)C(=O)O)CC1)C(=O)N[C@@H](CCCN)C(=O)N1CCC[C@H]1C(=O)N[C@@H](CCCNC(=N)N)C(=O)NCC(N)=O) [C20DA-gGlu4-Sar12-AEPipAc-Tyr-Phe-NMeLeu-Nle-Orn-Pro-Arg-Gly-NH2] |
| 190 nM | EEEEXXXXXXXXXXXXXYFLXRPRG (HELM PEPTIDE1{[O=C(O)CCCCCCCCCCCCCCCCCCC(=O)[*:2]].[gGlu].[gGlu].[gGlu].[gGlu].[Sar].[Sar].[Sar].[Sar].[Sar].[Sar].[Sar].[Sar].[Sar].[Sar].[Sar].[Sar].[O=C(CN1CCN(CCN[*:1])CC1)[*:2]].Y.F.[meL].[Nle].R.P.R.G.[am]}$$$$V2.0; SMILES CCCC[C@H](NC(=O)[C@H](CC(C)C)N(C)C(=O)[C@H](Cc1ccccc1)NC(=O)[C@H](Cc1ccc(O)cc1)NC(=O)CN1CCN(CCNC(=O)CN(C)C(=O)CN(C)C(=O)CN(C)C(=O)CN(C)C(=O)CN(C)C(=O)CN(C)C(=O)CN(C)C(=O)CN(C)C(=O)CN(C)C(=O)CN(C)C(=O)CN(C)C(=O)CN(C)C(=O)CC[C@H](NC(=O)CC[C@H](NC(=O)CC[C@H](NC(=O)CC[C@H](NC(=O)CCCCCCCCCCCCCCCCCCC(=O)O)C(=O)O)C(=O)O)C(=O)O)C(=O)O)CC1)C(=O)N[C@@H](CCCNC(=N)N)C(=O)N1CCC[C@H]1C(=O)N[C@@H](CCCNC(=N)N)C(=O)NCC(N)=O) [C20DA-gGlu4-Sar12-AEPipAc-Tyr-Phe-NMeLeu-Nle-Arg-Pro-Arg-Gly-NH2] |

From US20240279278A1, “NMU RECEPTOR 2 AGONISTS” (Boehringer Ingelheim International GmbH, priority 2023, published 2024)
